Assay results as given in US20240270846A1 (published 2024).
Numbering of substitutions follows the chain as printed. Names and notes keep the numbering of the source.

B1: CE115HA000 A99K one-arm antibody (antibody, human IgG1, kappa, L234A L235A, N297A, name in Kabat numbering)
heavy: QVQLVESGGGVVQPGRSLRLSCAASGFTFSNAWMHWVRQAPGKGLEWVAQIKAKSNNYATYYAESVKGRFTISRDDSKNSLYLQMNSLKTEDTAVYYCRYVHYGKYYGVDAWGQGTTVTVSSASTKGPSVFPLAPSSKSTSGGTAALGCLVKDYFPEPVTVSWNSGALTSGVHTFPAVLQSSGLYSLSSVVTVPSSSLGTQTYICNVNHKPSNTKVDKKVEPKSCDKTHTCPPCPAPEAAGGPSVFLFPPKPKDTLMISRTPEVTCVVVDVSHEDPEVKFNWYVDGVEVHNAKTKPREEQYASTYRVVSVLTVLHQDWLNGKEYKCKVSNKALPAPIEKTISKAKGQPREPQVYTLPPSRCELTKNQVSLSCAVKGFYPSDIAVEWESNGQPENNYKTTPPVLDSDGSFFLVSKLTVDKSRWQQGNVFSCSVMHEALHNHYTQKSLSLSPDYKDDDDK
chain: EPKSSDKTHTCPPCPAPELLGGPSVFLFPPKPKDTLMISRTPEVTCVVVDVSHEDPEVKFNWYVDGVEVHNAKTKPREEQYNSTYRVVSVLTVLHQDWLNGKEYKCKVSNKALPAPIEKTISKAKGQPREPQVCTLPPSRDELTKNQVSLWCLVKGFYPSDIAVEWESNGQPENNYKTTPPVLDSDGSFFLYSKLTVDKSRWQQGNVFSCSVMHEALHNRYTQKSLSLSP
light: DIVMTQSPLSLPVTPGEPASISCRSSQSLVHSNRNTYLHWYQQKPGQAPRLLIYKVSNRFSGVPDRFSGSGSGTDFTLKISRVEAEDVGVYYCGQGTQVPYTFGQGTKLEIKRTVAAPSVFIFPPSDEQLKSGTASVVCLLNNFYPREAKVQWKVDNALQSGNSQESVTEQDSKDSTYSLSSTLTLSKADYEKHKVYACEVTHQGLSSPVTKSFNRGEC
notes: one-arm antibody (one Fab)
B2: CE115HA000 E61P one-arm antibody (antibody, human IgG1, kappa, L234A L235A, N297A, name in Kabat numbering)
heavy: B1 heavy with E64P, K105A
chain: B1 chain
light: B1 light
notes: one-arm antibody (one Fab)
B3: CE115HA000 A99Q one-arm antibody (antibody, human IgG1, kappa, L234A L235A, N297A, name in Kabat numbering)
heavy: B1 heavy with K105Q
chain: B1 chain
light: B1 light
notes: one-arm antibody (one Fab)
B4: CE115HA000 D101F one-arm antibody (antibody, human IgG1, kappa, L234A L235A, N297A, name in Kabat numbering)
heavy: B1 heavy with K105A, D110F
chain: B1 chain
light: B1 light
notes: one-arm antibody (one Fab)
B5: CE115HA000 A102P one-arm antibody (antibody, human IgG1, kappa, L234A L235A, N297A, name in Kabat numbering)
heavy: B1 heavy with K105A, A111P
chain: B1 chain
light: B1 light
notes: one-arm antibody (one Fab)
B6: CE115HA000 A102Y one-arm antibody (antibody, human IgG1, kappa, L234A L235A, N297A, name in Kabat numbering)
heavy: B1 heavy with K105A, A111Y
chain: B1 chain
light: B1 light
notes: one-arm antibody (one Fab)
B7: CE115HA000 D101Q one-arm antibody (antibody, human IgG1, kappa, L234A L235A, N297A, name in Kabat numbering)
heavy: B1 heavy with K105A, D110Q
chain: B1 chain
light: B1 light
notes: one-arm antibody (one Fab)
B8: CE115HA000 A102V one-arm antibody (antibody, human IgG1, kappa, L234A L235A, N297A, name in Kabat numbering)
heavy: B1 heavy with K105A, A111V
chain: B1 chain
light: B1 light
notes: one-arm antibody (one Fab)
B9: CE115HA000 D101K one-arm antibody (antibody, human IgG1, kappa, L234A L235A, N297A, name in Kabat numbering)
heavy: B1 heavy with K105A, D110K
chain: B1 chain
light: B1 light
notes: one-arm antibody (one Fab)
B10: CE115HA000 D73N one-arm antibody (antibody, human IgG1, kappa, L234A L235A, N297A, name in Kabat numbering)
heavy: B1 heavy with D76N, K105A
chain: B1 chain
light: B1 light
notes: one-arm antibody (one Fab)
B11: CE115HA000 A99T one-arm antibody (antibody, human IgG1, kappa, L234A L235A, N297A, name in Kabat numbering)
heavy: B1 heavy with K105T
chain: B1 chain
light: B1 light
notes: one-arm antibody (one Fab)
B12: CE115HA000 D72V one-arm antibody (antibody, human IgG1, kappa, L234A L235A, N297A, name in Kabat numbering)
heavy: B1 heavy with D75V, K105A
chain: B1 chain
light: B1 light
notes: one-arm antibody (one Fab)
B13: CE115HA000 D101T one-arm antibody (antibody, human IgG1, kappa, L234A L235A, N297A, name in Kabat numbering)
heavy: B1 heavy with K105A, D110T
chain: B1 chain
light: B1 light
notes: one-arm antibody (one Fab)
B14: CE115HA000 D73R one-arm antibody (antibody, human IgG1, kappa, L234A L235A, N297A, name in Kabat numbering)
heavy: B1 heavy with D76R, K105A
chain: B1 chain
light: B1 light
notes: one-arm antibody (one Fab)
B15: CE115HA000 D101M one-arm antibody (antibody, human IgG1, kappa, L234A L235A, N297A, name in Kabat numbering)
heavy: B1 heavy with K105A, D110M
chain: B1 chain
light: B1 light
notes: one-arm antibody (one Fab)
B16: CE115HA000 D101P one-arm antibody (antibody, human IgG1, kappa, L234A L235A, N297A, name in Kabat numbering)
heavy: B1 heavy with K105A, D110P
chain: B1 chain
light: B1 light
notes: one-arm antibody (one Fab)
B17: CE115HA000 D101S one-arm antibody (antibody, human IgG1, kappa, L234A L235A, N297A, name in Kabat numbering)
heavy: B1 heavy with K105A, D110S
chain: B1 chain
light: B1 light
notes: one-arm antibody (one Fab)
B18: CE115HA000 D101V one-arm antibody (antibody, human IgG1, kappa, L234A L235A, N297A, name in Kabat numbering)
heavy: B1 heavy with K105A, D110V
chain: B1 chain
light: B1 light
notes: one-arm antibody (one Fab)
B19: CE115HA000 D101G one-arm antibody (antibody, human IgG1, kappa, L234A L235A, N297A, name in Kabat numbering)
heavy: B1 heavy with K105A, D110G
chain: B1 chain
light: B1 light
notes: one-arm antibody (one Fab)
B20: CE115HA000 E61Q one-arm antibody (antibody, human IgG1, kappa, L234A L235A, N297A, name in Kabat numbering)
heavy: B1 heavy with E64Q, K105A
chain: B1 chain
light: B1 light
notes: one-arm antibody (one Fab)
B21: CE115HA000 A102I one-arm antibody (antibody, human IgG1, kappa, L234A L235A, N297A, name in Kabat numbering)
heavy: B1 heavy with K105A, A111I
chain: B1 chain
light: B1 light
notes: one-arm antibody (one Fab)
B22: CE115HA000 A99L one-arm antibody (antibody, human IgG1, kappa, L234A L235A, N297A, name in Kabat numbering)
heavy: B1 heavy with K105L
chain: B1 chain
light: B1 light
notes: one-arm antibody (one Fab)
B23: CE115HA000 D101I one-arm antibody (antibody, human IgG1, kappa, L234A L235A, N297A, name in Kabat numbering)
heavy: B1 heavy with K105A, D110I
chain: B1 chain
light: B1 light
notes: one-arm antibody (one Fab)
B24: CE115HA000 D101L one-arm antibody (antibody, human IgG1, kappa, L234A L235A, N297A, name in Kabat numbering)
heavy: B1 heavy with K105A, D110L
chain: B1 chain
light: B1 light
notes: one-arm antibody (one Fab)
B25: CE115HA000 D101N one-arm antibody (antibody, human IgG1, kappa, L234A L235A, N297A, name in Kabat numbering)
heavy: B1 heavy with K105A, D110N
chain: B1 chain
light: B1 light
notes: one-arm antibody (one Fab)
B26: CE115HA000 D101Y one-arm antibody (antibody, human IgG1, kappa, L234A L235A, N297A, name in Kabat numbering)
heavy: B1 heavy with K105A, D110Y
chain: B1 chain
light: B1 light
notes: one-arm antibody (one Fab)
B27: CE115HA000 A99Y one-arm antibody (antibody, human IgG1, kappa, L234A L235A, N297A, name in Kabat numbering)
heavy: B1 heavy with K105Y
chain: B1 chain
light: B1 light
notes: one-arm antibody (one Fab)
B28: CE115HA000 D73T one-arm antibody (antibody, human IgG1, kappa, L234A L235A, N297A, name in Kabat numbering)
heavy: B1 heavy with D76T, K105A
chain: B1 chain
light: B1 light
notes: one-arm antibody (one Fab)
B29: CE115HA000 D101R one-arm antibody (antibody, human IgG1, kappa, L234A L235A, N297A, name in Kabat numbering)
heavy: B1 heavy with K105A, D110R
chain: B1 chain
light: B1 light
notes: one-arm antibody (one Fab)
B30: CE115HA000 G98A one-arm antibody (antibody, human IgG1, kappa, L234A L235A, N297A, name in Kabat numbering)
heavy: B1 heavy with G104A, K105A
chain: B1 chain
light: B1 light
notes: one-arm antibody (one Fab)
B31: CE115HA000 D101H one-arm antibody (antibody, human IgG1, kappa, L234A L235A, N297A, name in Kabat numbering)
heavy: B1 heavy with K105A, D110H
chain: B1 chain
light: B1 light
notes: one-arm antibody (one Fab)
B32: CE115HA000 A99S one-arm antibody (antibody, human IgG1, kappa, L234A L235A, N297A, name in Kabat numbering)
heavy: B1 heavy with K105S
chain: B1 chain
light: B1 light
notes: one-arm antibody (one Fab)

Biological target: T1, CD3 epsilon homodimer protein (UniProt P07766 23-126)
T1 construct: Immobilized on Sensor chip CM4 by amine coupling; construct not described; also called CD3 (CD3 epsilon)
Test: SPR Biacore T200, CD3 epsilon homodimer on CM4 chip, antibody as analyte;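 also: Amine-coupled CD3 epsilon homodimer, run at 25 °C in HBS-EP+ buffer, ratio is bound amount of each single-residue H chain variant over that of the parent antibody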

T1 sequence (P07766 23-126): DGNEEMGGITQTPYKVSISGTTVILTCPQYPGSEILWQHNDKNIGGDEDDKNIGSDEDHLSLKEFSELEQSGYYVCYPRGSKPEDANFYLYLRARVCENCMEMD

Row | Binder | ratio of amounts bound (Y/X vs CE115HA000)
1 | B1 | 1.48
2 | B2 | 1.07
3 | B3 | 0.91
4 | B4 | 0.75
5 | B5 | 0.14
6 | B6 | 0.91
7 | B7 | 2.35
8 | B8 | 1.43
9 | B9 | 0.63
10 | B10 | 0.94
11 | B11 | 0.84
12 | B12 | 1.43
13 | B13 | 0.79
14 | B14 | 1.04
15 | B15 | 1.2
16 | B16 | 0.2

Row | Binder | ratio of amounts bound (Y/X vs CE115HA000)
17 | B17 | 1.16
18 | B18 | 1.33
19 | B19 | 1.38
20 | B20 | 1.07
21 | B21 | 1.48
22 | B22 | 1.13
23 | B23 | 1.18
24 | B24 | 0.62
25 | B25 | 2.02
26 | B26 | 0.49
27 | B27 | 1.59
28 | B28 | 0.63
29 | B29 | 0.24
30 | B30 | 1.1
31 | B31 | 1.21
32 | B32 | 0.82
